“Also recorded” adds a separate entry of the source.
Tests used:
U2-OS cells = assay: Colocalization of +36GFP fusions with lysosomal membrane (confocal microscopy); format: cell-based; details: 5 μM, 1 hr
Description: U-2 OS (ATCC) cells were cultured in DMEM supplemented with 10% (v/v) inactivated FBS (Corning), 2 mM glutamine, penicillin (100 IU/mL), and streptomycin (100 μg/mL) at 37° C. and 5% CO2. The glass-bottom coverslip chambers were pre-coated with 500 μg/mL of Matrigel (Corning). Transfection of LAMP1-HaloTagTM was performed using Lonza Nucleofector system according to the manufacturer's specifications. After overnight of recovery and expression, the cells expressing LAMP1-HaloTagTM were labeled with 100 nM JF646-HTL for 30 minutes and washed three times with pre-warmed DMEM medium. The final concentration of 5 μM+36GFP fusion proteins was incubated with the LAMP1-HaloTagTM expressing U-2 OS cells on a pre-coated coverslip for 1 hr. Cells were fixed with 4% paraformaldehyde for 20 min at room temperature (RT) and quenched/rinsed with PBS supplemented with 30 mM glycine. Then, the coverslips were mounted on FluoroSaveTM (Millipore). For pH measurement of the lysosome, LysoSensorTM Yellow/Blue DND-160 was incubated at 1 mg/mL overnight and washed twice prior to imaging (54). The final concentration of 5 μM protein was incubated with the LAMP1-HaloTag expressing U2-OS cells that were loaded with 1 mg/mL LysoSensorTM Yellow/Blue DND-160 for 1 hr. In separate chambers, LysoSensorTM Yellow/Blue DND-160 loaded cells were incubated with bafilomycin A1 (1 μM) and chloroquine (50 μM) for 1 hr as a control. For fixed cell confocal microscopy, a customized Nikon TiE inverted scope outfitted with a Yokogawa spinning-disk scan head (#CSU-X1) along with an Andor iXonTM EM-CCD camera (DU-897) with […] exposure time was used to collect 3D images using an SR Apo TIRF 100×1.49 oil-immersion objective. […] coefficients were calculated in 3D with JF646 signal (LAMP-HaloTag) and +36GFP signal (corresponding proteins) using Imaris software with thresholding. Zeiss 880 equipped with AiryScanTM was also used to obtain high resolution images using a Plan-Apochromatic 63×/1.4 oil DIC objective.

[1] = Cryo-electron microscopy and tomography of proteins with DOPC liposomes; details: gold-nanoparticle conjugates; for membrane deformation and disruption by cryo-EM: pH 5
Description: The conjugation reactions were performed immediately prior to use for electron microscopy imaging. […] The grids were prepared using a Vitrobot Mark IV (FEI) at 4 C and 100% humidity before being plunge-frozen in ethane cooled with liquid nitrogen.
Electron micrographs were collected using a Tecnai G2 Spirit™ Transmission Electron Microscope (FEI) operated at 120 kV and equipped with a 4k×4k Gatan Ultrascan CCD camera at a nominal magnification of 26,000× or a Tecnai TF-20 Transmission Electron Microscope (FEI) operated at 200 kV equipped with a K2 Summit Direct Electron Detector (Gatan).
Projection micrographs collected on the TF-20 were captured with the detector operating in counting mode. Specimens were imaged at 14,500 magnification, giving a pixel size of 0.254 nm, with a dose of ˜18e−/Å^2 across 75 200 ms movie frames. Data were collected in a semi-automated fashion using Leginon™ (49) and micrograph movie frames were aligned using MotionCor2™ (50). Leginon™ was used to collect tomography tilt series from −48 to +48 degrees bidirectionally in 3 degree increments with a total accumulated dose of ˜100 e−/Å^2. Reconstructions were processed using etomo in the IMOD™ software suite (31) with CTF parameters estimated from CTFFIND4™ (52). Reconstructed tomograms were visualized and measurements were made using ImageJ™ (53).

[2] = Circular dichroism: GdmCl chemical denaturation and temperature melts; details: for folding stability by GdmCl denaturation: CD at 222 nm, PBS pH 7.4 or Na2PO4-Citrate at lower pH
Description: For low-pH experiments involving circular dichroism (CD), small-angle X-ray scattering (SAXS), and size exclusion chromatography (SEC), Na2PO4-Citrate buffer was used to ensure that a single buffer system could be used that was stable over the entire pH range to be tested. Buffers were made using established ratios of stock solutions of 0.2 M Na2PO4 and 0.1 M Citrate; final pH was adjusted using hydrochloric acid (HCl) or sodium hydroxide (NaOH) if needed.
CD wavelength scans (260 to 195 nm) and temperature melts (25 to 95° C.) were measured using a JASCO™ J-1500 or an AVIV™ model 420 CD spectrometer. Temperature melts monitored absorption signal at 222 nm and were carried out at a heating rate of 4° C./min; protein samples were at 0.25 mg/mL in either phosphate buffered saline (PBS) pH 7.4 or Na2PO4-Citrate at indicated pH values (see Buffers systems for varying pH). Guanidinium chloride (GdmCl) titrations were all performed on an AVIV 420 spectrometer with an automated titration apparatus using either PBS pH 7.4 or Na2PO4-Citrate buffers at indicated pH at room temperature, monitoring helical signal at 222 nm, using a protein concentration of 0.025 mg/mL in a 1 cm cuvette with stir bar. Each titration consisted of at least 30 evenly distributed concentration points with one minute mixing time for each step. Titrant solution consisted of the same concentration of protein in the same buffer system plus GdmCl; GdmCl concentration of starting solutions was determined by reactive index.

[3] = Fluorescence dequenching liposome leakage (liposome disruption) assay; format: biochemical; details: for pH-dependent liposome disruption: SRB leakage
Summary of the method: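 Extruded ~120–130 nm liposomes (DOPC or 3:1 DOPC:POPS, ± 25% cholesterol) loaded with 25 mM sulforhodamine B in Tris buffer pH 8.0 were acidified to target pH for 20 min at 24 °C. Leakage was read as SRB dequenching (ex/em 565/586) and normalised to pre-acidification and 1% Triton X-100 signals.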

[4] = 2.5 μM protein with respect to monomer

Molecule | colocalization with lysosomal membranes (U2-OS cells) | membrane deformation and disruption by cryo-EM [1] | effect of EDTA on helical fold or thermostability ([2]; 10 mM EDTA, PBS pH 7.4) | folding stability by GdmCl denaturation [2] | highest pH with liposome disruption [3, 4] | pH of maximal liposome disruption activity [3, 4] | pH-dependent liposome disruption [3, 4] | disruption of liposomes with more native-like lipid compositions ([3]; pH 5.0, DOPC, POPS, cholesterol mixtures) | colocalization with lysosomal membranes (U2-OS cells; listed as I56V) | interaction with liposomes by cryo-EM ([1]; pH 5 and pH 8)
pRO-2: designed pH-responsive homotrimer, SEQ ID NO: 1-2 (protein) chain 1: MGSHHHHHHGSGSENLYFQGSEYEIRKALEELKAATAELKRATASLRAITEELKKNPSEDALVEHNRAIVEHNAIIVEHNRIIAAVLELIVRAIK chain 2: SEYEIRKALEELKAATAELKRATASLRAITEELKKNPSEDALVEHNRAIVEHNAIIVEHNRIIAAVLELIVRAIK | colocalize with lysosomal membranes and are not degraded | widespread membrane deformation and disruption of the lipid bilayer | no effect on the helical fold or thermostability | decreased folding stability at low pH; also recorded: strongly pH dependent | ≤ 6 pH | ~5 pH | disrupts liposomes in a pH-dependent manner | caused pH-dependent disruption of liposomes with more native-like lipid compositions | – | –
pRO-2 I56V: pRO-2 mutant, SEQ ID NO: 17-18 (protein) chain 1: MGSHHHHHHGSGSENLYFQGSEYEIRKALEELKAATAELKRATASLRAITEELKKNPSEDALVEHNRAIVEHNAIVVEHNRIIAAVLELIVRAIK chain 2: GSEYEIRKALEELKAATAELKRATASLRAITEELKKNPSEDALVEHNRAIVEHNAIVVEHNRIIAAVLELIVRAIK | clearly localized within lysosomes | widespread membrane deformation and disruption of the lipid bilayer | – | decreases stability | – | – | increased liposome permeabilization activity; also recorded: increased membrane permeabilization activity | – | colocalize with lysosomal membranes and are not degraded; also recorded: most strongly colocalized with the lysosomal membrane | directly interacts with liposomes at pH 5 but not at pH 8; also recorded: interacts directly with liposomes at pH 5 but not pH 8
